The text below walks through data of paper PMC4368098, “DICER-ARGONAUTE2 Complex in Continuous Fluorogenic Assays of RNA Interference Enzymes”.

In general, IC50 refers to the concentration at which inhibition is half-maximal.

B1: D25 (dsRNA)
RNA 1: GCACCCCCACCUCUGGACUUGCCUUUC
RNA 2: AAGGCAAGUCCAGAGGUGGGGGUGC
B2: D12 (dsRNA)
RNA 1: UACUCAGGACACAGAUUUAGACUUGGA
RNA 2: CAAGUCUAAAUCUGUGUCCUGAGUA
B3: D11 (dsRNA)
RNA 1: ACCUGAGCCUAAUAGUCCCAGUGAAUA
RNA 2: UUCACUGGGACUAUUAGGCUCAGGU
B4: D10 (dsRNA)
RNA 1: CCUGAGGAAGAACUAAAUCCAAAGAUA
RNA 2: UCUUUGGAUUUAGUUCUUCCUCAGG
B5: D09 (dsRNA)
RNA 1: CAGACACCUAGUCCUUCCGAUGGAAGC
RNA 2: UUCCAUCGGAAGGACUAGGUGUCUG
B6: D08 (dsRNA)
RNA 1: CCAGAAGAACUUUUAGGCCGCUCAAUU
RNA 2: UUGAGCGGCCUAAAAGUUCUUCUGG
B7: D06 (dsRNA)
RNA 1: GGAUAGUGAUAUGGUCAAUGAAUUC
RNA 2: GAAUUCAUUGACCAUAUCACUAUCCAC
B8: D03 (dsRNA)
RNA 1: CCGGUUGAAUCUUCAGAUAUGAAAA
RNA 2: UUUUCAUAUCUGAAGAUUCAACCGGUU
B9: D07 (dsRNA)
RNA 1: GGAUAAAAUUCUCAAUUCAGAGAAA
RNA 2: UUUCUCUGAAUUGAGAAUUUUAUCCAA
B10: D01 (dsRNA)
RNA 1: ACCGGUUGAAUCUUCAGAUAUGAAA
RNA 2: UUUCAUAUCUGAAGAUUCAACCGGUUU
B11: D04 (dsRNA)
RNA 1: GUUCCUGAGGAAGAACUAAAUCCAA
RNA 2: UUGGAUUUAGUUCUUCCUCAGGAACUG
B12: D02 (dsRNA)
RNA 1: GCUGAUUUGUGAACCCAUUCCUCAC
RNA 2: GUGAGGAAUGGGUUCACAAAUCAGCAC
B13: D05 (dsRNA)
RNA 1: GGAACAUGAUGGUUCACUUUUUCAA
RNA 2: UUGAAAAAGUGAACCAUCAUGUUCCAU

One series has as its target DICER;ARGONAUTE2 (AGO2) (human;human, UniProt Q9UPY3;Q9UKV8 1-1922;1-859, |). Description: competition (fluorogenic siRNA processing); 80 nM BoPsi664, 30 nM each enzyme; Assay Buffer with 1 mM free Mg2+ (full composition not in the material), 37 C; indirect read-out by competitive inhibition of fluorogenic siRNA processing, no d. To be noted: protein: recombinant;recombinant, tags: C-terminal 6xHis with TEV site, tag removed by TEV;N-terminal 6xHis with TEV site, copies: 1;1, 3' overhang 2 nt on strand 1, other end blunt.
Consider B1, for which the IC50 stood at 796 nM. On the same count and under the same terms, as for B2, the figure is 453 nM; as for B3, 364 nM. For B4, the half-maximal inhibitory concentration (IC50) came out at 633 nM. Turning to B5, the IC50 is 767 nM. In the case of B6, the IC50 is 1060 nM.

Still in this series, the particulars now being: protein: recombinant;recombinant, tags: C-terminal 6xHis with TEV site, tag removed by TEV;N-terminal 6xHis with TEV site, copies: 1;1, 3' overhang 2 nt on strand 2, other end blunt.
As for B7, the IC50 turned out to be 474 nM. B8: the half-inhibitory concentration (IC50) stood at 150 nM. For the molecule B9, the IC50 worked out at 282 nM.

In the case of B10, the IC50 is 56 nM.

As for B11, the half-inhibitory concentration (IC50) was 180 nM. In the case of B12, the 50% inhibitory concentration (IC50) came out at 142 nM. For B13, the concentration for half-maximal inhibition (IC50) was determined as 209 nM.
